Assays:
[1] = molecular target: murine PD-L1 on CHOK1 cells (murine, UniProt Q9EP73 19-290); assay: flow
[2] = molecular target: T1, murine OX40 on CHOK1 cells (murine, UniProt P47741 20-272); assay: flow cytometry cell binding
T1 chain: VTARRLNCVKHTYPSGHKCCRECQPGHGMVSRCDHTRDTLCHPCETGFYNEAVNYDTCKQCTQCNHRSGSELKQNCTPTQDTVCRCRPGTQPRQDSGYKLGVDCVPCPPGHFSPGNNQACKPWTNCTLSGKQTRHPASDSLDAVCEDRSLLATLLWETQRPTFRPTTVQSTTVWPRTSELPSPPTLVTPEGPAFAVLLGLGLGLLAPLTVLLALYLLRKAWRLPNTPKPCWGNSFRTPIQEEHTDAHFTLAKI

[3] = molecular target: T2, murine PD-L2 on CHOK1 cells (murine, UniProt Q9WUL5 20-247); assay: flow cytometry cell binding
T2 chain: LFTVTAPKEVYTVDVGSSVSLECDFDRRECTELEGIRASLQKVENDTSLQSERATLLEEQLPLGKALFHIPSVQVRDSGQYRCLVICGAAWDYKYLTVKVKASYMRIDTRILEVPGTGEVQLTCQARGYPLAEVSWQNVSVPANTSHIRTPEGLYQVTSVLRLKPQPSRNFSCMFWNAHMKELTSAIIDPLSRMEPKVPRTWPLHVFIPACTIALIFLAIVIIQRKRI

mCD40L-Fc = assay: SPR

murine PD-L1 on CHOK1 cells, sequence (Q9EP73 19-290): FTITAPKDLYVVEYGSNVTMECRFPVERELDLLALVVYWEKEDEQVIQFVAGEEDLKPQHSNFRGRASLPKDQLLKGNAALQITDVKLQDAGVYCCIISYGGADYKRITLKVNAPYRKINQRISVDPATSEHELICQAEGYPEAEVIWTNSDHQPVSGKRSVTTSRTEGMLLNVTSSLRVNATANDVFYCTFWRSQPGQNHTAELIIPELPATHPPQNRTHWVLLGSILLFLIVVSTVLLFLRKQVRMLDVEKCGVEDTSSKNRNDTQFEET

B1: murine PD-1-Fc-OX40L chimeric protein (Fc fusion)
chain: LEVPNGPWRSLTFYPAWLTVSEGANATFTCSLSNWSEDLMLNWNRLSPSNQTEKQAAFCNGLSQPVQDARFQIIQLPNRHDFHMNILDTRRNDSGIYLCGAISLHPKAKIEESPGAELVVTERILETSTRYPSPSPKPEGRFQGMSSSPAKDPPIQRLRGAVTRCEDGQLFISSYKNEYQTMEVQNNSVVIKCDGLYIIYLKGSFFQEVKIDLHFREDHNPISIPMLNDGRRIVFTVVASLAFKDKVYLTVNAPDTLCEHLQINDGELIVVQLTPGYCAPEGSYHSTVNQVPL
B1 showed an EC50 [1] of 27.8 nM, an EC50 [2] of 6.28 nM and an EC50 [3] of 47.7 nM.

B2: mCD40 (receptor)
chain: VTCSDKQYLHDGQCCDLCQPGSRLTSHCTALEKTQCHPCDSGEFSAQWNREIRCHQHRHCEPNQGLRVKKEGTAESDTVCTCKEGQHCTSKDCEACAQHTPCIPGFGVMEMATETTDTVCHPCPVGFFSNQSSLFEKCYPWTSCEDKNLEVLQKGTSQTNVICGLKSRMR
Work on B2 yielded a Kd (mCD40L-Fc) of 3.23 nM.
